The assay has as its target Gal4-ARNT-ΔTAD (PL283), Gal DNA-binding domain fusion of ARNT deleted for the transactivation domain. As to the kind of experiment: two-hybrid.

In turn, “full-length AHRdbd, 'fish' of the mammalian two-hybrid (pTgTAHRdbd, PL1548) (from UniProt P30561 10-848) (natural protein)” had a fold increase of luciferase activity with 1nM TCDD of 10 fold.

Consider “wild-type AHR, 'fish' of the mammalian two-hybrid (pTgTAHRs, PL1550) (from UniProt P30561 10-848) (natural protein)”, for which the fold increase of luciferase activity with 1nM TCDD amounted to 3 fold.
